± gives the standard error. For some assays here: Variants at the floor of the assay were thinned out.
B1: glmS ribozyme (parent)
chain: AUAAAAGCGCCAGAACUACAGAAAUGUAGUUGACGAGGAGGAGGUUUAUCGAAUUUUCGGCGGAUGCCUCCAAA

Tests used:
Conditions in all cases: with glucosamine-6-phosphate
[1] = variants of: B1; test: kcat; higher = faster cleavage; RNA array
Summary of the method: (§1)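 Glucosamine-6-phosphate (40 μM to 10 mM) in HEPES/KCl/Mg(OAc)2 buffer was flowed over sequenced MiSeq chips, and tiles were imaged over ~14 h. Barcoded ribozyme variants there had been transcribed in situ by E. coli RNA polymerase and were tracked through a hybridised Cy3 probe at 37 °C. One- or two-exponential decay fits to per-tile medians, normalised to baseline and to non-cleaving reference variants, gave kobs. kcat and KM came from weighted Michaelis–Menten fits across concentrations.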

[2] = variants of: B1; test: KM; higher = weaker cofactor use; RNA array
Summary of the method: as §1

[3] = variants of: B1; test: self-cleavage kobs at 40 uM GlcN6P; higher = faster cleavage; RNA array
Summary of the method: as §1

[4] = variants of: B1; test: self-cleavage kobs at 160 uM GlcN6P; higher = faster cleavage; RNA array
Summary of the method: as §1

[5] = variants of: B1; test: self-cleavage kobs at 640 uM GlcN6P; higher = faster cleavage; RNA array
Summary of the method: as §1

[6] = variants of: B1; test: self-cleavage kobs at 2500 uM GlcN6P; higher = faster cleavage; RNA array
Summary of the method: as §1

[7] = variants of: B1; test: self-cleavage kobs at 10000 uM GlcN6P; higher = faster cleavage; RNA array
Summary of the method: as §1

Row | Variant | kcat [1] [s⁻¹] | KM [2] [µM] | self-cleavage kobs at 40 uM GlcN6P [3] [s⁻¹] | self-cleavage kobs at 160 uM GlcN6P [4] [s⁻¹] | self-cleavage kobs at 640 uM GlcN6P [5] [s⁻¹] | self-cleavage kobs at 2500 uM GlcN6P [6] [s⁻¹] | self-cleavage kobs at 10000 uM GlcN6P [7] [s⁻¹]
1 | AUAAAAGCGCCAGAACUACAGAAAUGUAGUUGACGAGGACGAGGUUUAUCGAAUUUUCGGCGGAUGCCUUCAAA [G40C C70U] | 0.000498 ± 0.00011 | 512 ± 240 | 4.61e-05 ± 9e-06 | 0.000155 ± 3.2e-05 | 0.0002 ± 3.4e-05 | 0.000428 ± 9.7e-05 | 0.000555 ± 6.8e-05
2 | AUAAAAGCGCCAGAACUACAGAAAUGUAGUUGACGAGGAAGAGGUCUAUCGAAUUUUCGGCGGAUGCCUCCAAA [G40A U46C] | 0.00192 ± 0.00051 | 1280 ± 450 | 7.21e-05 ± 1.4e-05 | 0.000173 ± 3.9e-05 | 0.000699 ± 0.00012 | 0.00107 ± 0.00036 | 0.00192 ± 0.00054
3 | AUAAAAGCGCCAGAACUACAGAAAUGUAGUUGACGAGGACAAGGUUUAUCGAAUUUUCGGCGGAUGCCUCCAAA [G40C G41A] | 0.000118 ± 1.4e-05 | 667 ± 260 | – | – | 5.69e-05 ± 8.6e-06 | 0.000104 ± 1.1e-05 | 0.000101 ± 1.3e-05
4 | AUAAAAGCGCCAGAACUACAGAAAUGUAGUUGACGAGGAAGAGGUUUAUCGAAUCUUCGGCGGAUGCCUCCAAA [G40A U55C] | 0.0017 ± 0.00029 | 1980 ± 650 | 4.24e-05 ± 1.5e-05 | – | 0.00035 ± 0.0001 | 0.00119 ± 0.00036 | 0.0014 ± 0.00025
5 | AUAAAAGCGCCAGAACUACAGAAAUGUAGUUGACGAGGAAGAGGUUUAUCGAAUUUCCGGCGGAUGCCUCCAAA [G40A U57C] | 3.56e-05 ± 5.2e-06 | – | – | – | – | 4.59e-05 ± 2e-05 | 3.15e-05 ± 1.2e-05
6 | AUAAAAGCGCCAGAACUACAGAAAUGUAGUUGACGAGGAAGAGGCUUAUCGAAUUUUCGGCGGAUGCCUUCAAA [G40A U45C C70U] | 0.000583 ± 6.9e-05 | 2900 ± 550 | – | – | 0.000105 ± 2.7e-05 | 0.000288 ± 8e-05 | 0.000432 ± 0.00015
7 | AUAAAAGCGCCAGAACUACAGAAAUGUAGUUGACGAGGACGAGGUAUAUCGAAUUUUCGGCGGAUGCCUCCAAA [G40C U46A] | 0.000264 ± 7.1e-05 | – | – | – | 7.92e-05 ± 1.6e-05 | 0.000286 ± 4.6e-05 | 0.000207 ± 3.1e-05
8 | AUAAAAGCGCCAGAACUACAGAAAUGUAGUUGACGAGGACGAGGUUAAUCGAAUUUUCGGCGGAUGCCUCCAAA [G40C U47A] | 0.00182 ± 0.0003 | 1170 ± 310 | 7.98e-05 ± 1.1e-05 | 0.000192 ± 3.4e-05 | 0.000511 ± 0.0001 | 0.00128 ± 0.00024 | 0.0017 ± 0.00019
9 | AUAAAAGCGCCAGAACUACAGAAAUGUAGUUGACGAGGACGAGGUUUAUCGAAUUUUCGGCGGAUGUCUCCAAA [G40C C67U] | 0.000108 ± 1.3e-05 | – | – | – | – | 7.55e-05 ± 1.5e-05 | 8.8e-05 ± 7e-06
10 | AUAAAAGCGCCAGAACUACAGAAAUGUAGUUGACGAGGACGAGGUUUAUCGAAUUUUCGGCGGAUGACUCCAAA [G40C C67A] | 0.000136 ± 2.4e-05 | – | – | – | 6.63e-05 ± 1.2e-05 | 0.000181 ± 2.9e-05 | 0.000119 ± 1.3e-05
11 | AUAAAAGCGCCAGAACUACAGAAAUGUAGUUGACGAGGACGAGGUUUAUCGAGUUUUCGGCGGAUGCCUCCAAA [G40C A53G] | 0.00206 ± 0.00018 | 2160 ± 310 | 4.19e-05 ± 1.7e-05 | 0.000126 ± 3e-05 | 0.000539 ± 0.00012 | 0.00115 ± 0.00032 | 0.00166 ± 0.00025
12 | AUAAAAGCGCCAGAACUACAGAAAUGUAGUUGACGAGGACGAGGUUUAUCGAUUUUUCGGCGGAUGCCUCCAAA [G40C A53U] | 0.00427 ± 0.00097 | 2570 ± 870 | 8.31e-05 ± 9.2e-06 | 0.000241 ± 5.8e-05 | 0.000607 ± 0.00011 | 0.00226 ± 0.00037 | 0.0035 ± 0.00035
13 | AUAAAAGCGCCAGAACUACAGAAAUGUAGUUGACGAGGAACAGGUUUAUCGAGUUUUCGGCGGAUGCCUCCAAA [G40A G41C A53G] | 0.000315 ± 0.00011 | 3110 ± 1500 | – | – | 5.58e-05 ± 1.2e-05 | 0.000139 ± 3.1e-05 | –
14 | AUAAAAGCGCCAGAACUACAGAAAUGUAGUUGACGAGGAAGACGUUCAUGGAAUUUUCGGCGGACGCCUCCAAA [G40A G43C U47C C50G U65C] | 2.52e-05 ± 1.1e-05 | – | – | – | – | – | –
15 | AUAAAAGCGCCAGAACUACAGAAAUGUAGUUGACGAGGAAGAGGUUUAUCGAAUCUUCGGCGGGUGCCUCCAAA [G40A U55C A64G] | 4.82e-05 ± 7.4e-06 | 7420 ± 2400 | – | – | – | – | –
16 | AUAAAAGCGCCAGAACUACAGAAAUGUAGUUGACGAGGACGAGGCUUAUCGAAUUUUCGGCGGAUGCCUCCAAA [G40C U45C] | 0.000403 ± 4.9e-05 | 2310 ± 570 | – | – | 0.0001 ± 2.5e-05 | 0.000195 ± 3.4e-05 | 0.000344 ± 6.4e-05

— the supplement of paper PMC7125110
